Assay results as given in doi:10.1101/2020.10.13.338178.
No end group written: not given here. *: point of attachment. AMC = Cc1cc(=O)oc2cc(N*)ccc12

T1: Plasmodium falciparum M17 leucine aminopeptidase (Plasmodium falciparum) (UniProt Q8IL11)
T1 sequence: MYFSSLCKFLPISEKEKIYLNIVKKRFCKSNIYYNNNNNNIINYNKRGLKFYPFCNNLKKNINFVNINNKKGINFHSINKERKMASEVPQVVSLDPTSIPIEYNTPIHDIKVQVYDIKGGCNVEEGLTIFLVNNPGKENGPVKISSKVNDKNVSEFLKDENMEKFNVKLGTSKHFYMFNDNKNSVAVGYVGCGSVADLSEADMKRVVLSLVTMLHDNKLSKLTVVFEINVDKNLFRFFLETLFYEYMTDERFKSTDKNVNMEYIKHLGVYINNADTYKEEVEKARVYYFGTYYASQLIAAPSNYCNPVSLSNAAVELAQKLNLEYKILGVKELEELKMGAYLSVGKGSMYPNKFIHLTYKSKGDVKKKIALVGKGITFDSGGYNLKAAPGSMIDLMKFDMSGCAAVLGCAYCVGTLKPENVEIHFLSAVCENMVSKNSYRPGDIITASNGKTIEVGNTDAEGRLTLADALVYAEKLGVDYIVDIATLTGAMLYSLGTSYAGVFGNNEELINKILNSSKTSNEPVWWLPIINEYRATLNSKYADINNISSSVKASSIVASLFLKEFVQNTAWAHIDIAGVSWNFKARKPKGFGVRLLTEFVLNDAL

T2: Plasmodium vivax M17 aminopeptidase (Plasmodium vivax) (UniProt A5K3U9)
T2 sequence (A5K3U9 74-621, looked up): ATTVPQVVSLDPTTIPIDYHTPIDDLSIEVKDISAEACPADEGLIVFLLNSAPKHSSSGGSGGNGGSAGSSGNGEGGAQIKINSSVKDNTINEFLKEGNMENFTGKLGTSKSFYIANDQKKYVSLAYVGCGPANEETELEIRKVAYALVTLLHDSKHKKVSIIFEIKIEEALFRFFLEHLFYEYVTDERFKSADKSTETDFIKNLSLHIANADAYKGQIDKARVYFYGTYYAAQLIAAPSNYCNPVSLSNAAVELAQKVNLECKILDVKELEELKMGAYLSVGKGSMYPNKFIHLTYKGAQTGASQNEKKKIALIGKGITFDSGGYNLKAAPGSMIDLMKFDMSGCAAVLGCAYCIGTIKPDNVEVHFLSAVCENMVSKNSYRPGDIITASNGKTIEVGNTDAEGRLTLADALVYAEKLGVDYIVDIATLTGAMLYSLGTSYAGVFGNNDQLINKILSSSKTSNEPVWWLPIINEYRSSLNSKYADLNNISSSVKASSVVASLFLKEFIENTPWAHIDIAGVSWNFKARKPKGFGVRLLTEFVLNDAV


How the values were obtained:
[1] = target: Plasmodium berghei M1 aminopeptidase (Plasmodium berghei)
[2] = target: Plasmodium vivax M1 aminopeptidase (Plasmodium vivax)
[3] = target: Plasmodium berghei M17 aminopeptidase (Plasmodium berghei)
[4] = target: T1, Plasmodium falciparum M17 leucine aminopeptidase (Plasmodium falciparum)
[5] = target: T2, Plasmodium vivax M17 aminopeptidase (Plasmodium vivax)

Molecule | Km of hydrolysis (release of NHMec, Michaelis-Menten kinetics) [1] [µM] | Km of hydrolysis (release of NHMec, Michaelis-Menten kinetics) [2] [µM] | Km of hydrolysis (release of NHMec, Michaelis-Menten kinetics, 1 mM CoCl2) [3] [µM] | Km of hydrolysis (release of NHMec, Michaelis-Menten kinetics, 1 mM CoCl2) [4] [µM] | Km of hydrolysis (release of NHMec, Michaelis-Menten kinetics, 1 mM CoCl2) [5] [µM]
Leucine-Leucine-7-amido-4-methyl-coumarin (peptide) | 28.4 | 27.9 | 25 | 30.8 | 32.9
LLLL-{AMC} [Leucine-Leucine-Leucine-Leucine-7-amido-4-methyl-coumarin] | 33.9 | 41.5 | 4.6 | 6.9 | 22.6
